{
  "source": "paper PMC4887207",
  "about": "“Viral hijacking of a replicative helicase loader and its implications for helicase loading control and phage replication” (eLife, 2016)",
  "molecules": {"B1": {"name": "full-length Staphylococcus aureus DnaI (natural protein, UniProt Q3ZUA6 1-306, looked up)", "chain": "MKQFKSIINTSQDFEKRIEKIKKEVINDPDVKQFLEAHRAELTNAMIDEDLNVLQEYKDQQKHYDGHKFADCPNFVKGHVPELYVDNNRIKIRYLQCPCKIKYDEERFEAELITSHHMQRDTLNAKLKDIYMNHRDRLDVAMAADDICTAITNGEQVKGLYLYGPFGTGKSFILGAIANQLKSKKVRSTIIYLPEFIRTLKGGFKDGSFEKKLHRVREANILMLDDIGAEEVTPWVRDEVIGPLLHYRMVHELPTFFSSNFDYSELEHHLAMTRDGEEKTKAARIIERVKSLSTPYFLSGENFRNN", "notes": "Staphylococcus aureus helicase loader DnaI, residues 1-306 by the limits of the domain constructs; Residues 136-306 are in PDB 5HE8 and 5HE9; also called SaDnaI; FL SaDnaI; not shown: His6, N-terminal, cleaved; MBP, N-terminal, cleaved"}, "B2": {"name": "SaDnaC replicative helicase (natural protein, Staphylococcus aureus, UniProt Q9AQH7 1-466, looked up)", "chain": "MDRMYEQNQMPHNNEAEQSVLGSIIIDPELINTTQEVLLPESFYRGAHQHIFRAMMHLNEDNKEIDVVTLMDQLSTEGTLNEAGGPQYLAELSTNVPTTRNVQYYTDIVSKHALKRRLIQTADSIANDGYNDELELDAILSDAERRILELSSSRESDGFKDIRDVLGQVYETAEELDQNSGQTPGIPTGYRDLDQMTAGFNRNDLIILAARPSVGKTAFALNIAQKVATHEDMYTVGIFSLEMGADQLATRMICSSGNVDSNRLRTGTMTEEDWSRFTIAVGKLSRTKIFIDDTPGIRINDLRSKCRRLKQEHGLDMIVIDYLQLIQGSGSRASDNRQQEVSEISRTLKALARELKCPVIALSQLSRGVEQRQDKRPMMSDIRESGSIEQDADIVAFLYRDDYYNRGGDEDDDDDGGFEPQTNDENGEIEIIIAKQRNGPTGTVKLHFMKQYNKFTDIDYAHADMM", "notes": "Staphylococcus aureus replicative helicase DnaC (a DnaB-family helicase); also called S. aureus DnaC replicative helicase; host helicase; not shown: His6, N-terminal, cleaved; MBP, N-terminal, cleaved"}, "B3": {"name": "SaDnaI^AAA+ (residues 136-306) (domain or fragment)", "chain": "DRLDVAMAADDICTAITNGEQVKGLYLYGPFGTGKSFILGAIANQLKSKKVRSTIIYLPEFIRTLKGGFKDGSFEKKLHRVREANILMLDDIGAEEVTPWVRDEVIGPLLHYRMVHELPTFFSSNFDYSELEHHLAMTRDGEEKTKAARIIERVKSLSTPYFLSGENFRNN"}},
  "key": {"[1]": {"target": "SeMet-SaDnaI^AAA+ (Staphylococcus aureus) (UniProt Q3ZUA6)", "assay": "crystal structure; ADP•BeF3-bound SaDnaI^AAA+•77ORF104 complex, SeMet SAD, 1.9 Å; complex formed with two-fold excess of 77ORF104"}, "[2]": {"target": "SaDnaI^AAA+ (residues 136-306) (Staphylococcus aureus) (UniProt Q3ZUA6)", "assay": "fluorescence polarisation; anisotropy-based competition; 20 nM labeled 77ORF104 and 2 µM SaDnaI^AAA+, unlabeled 77ORF104 or mutant titrated; 50 mM HEPES-KOH pH 7.5, 125 mM KCl, 10% glycerol, 5 mM MgCl2, 1 mM DTT; apparent"}, "[3]": {"target": "SaDnaI^AAA+ (residues 136-306) (UniProt Q3ZUA6)", "assay": "competition-based fluorescence anisotropy assay", "conditions": "read at the highest unlabeled competitor concentration (last point, just beyond the 10 µM tick); the competitor displaces N-terminally labeled wild-type …; parent: est. 20; read off a plot"}, "[4]": {"target": "the molecule itself", "assay": "centrifugal pelleting assay; 90 µM SaDnaI with or without 180 µM 77ORF104, 20 min on ice, 14,000 x g 1 min; 20 mM HEPES-KOH pH 7.5, 100 mM NaCl, 10% glycerol, 5 mM MgCl2, 6 mM ATP; SDS-PAGE of pellet and supernatant"}, "[5]": {"target": "the molecule itself", "assay": "SEC; analytical gel filtration, 5/150 GL Superdex 200; 20 mM Tris-HCl pH 8.0, 200 mM NaCl, 5% glycerol, 5 mM MgCl2, 1 mM BME, 10 mM ATP; 7 µM SaDnaC, 14 µM SaDnaI, 14 µM 77ORF013, 30 µM 77ORF104; peak fractions on SDS-PAGE"}, "[6]": {"target": "N-terminally labeled, wild-type 77ORF104 (Staphylococcus bacteriophage 77)", "assay": "fluorescence polarisation; fluorescence anisotropy; 20 nM N-terminally AlexaFluor 488-labeled 77ORF104, unlabeled protein titrated in 2-fold steps; 50 mM HEPES-KOH pH 7.5, 125 mM KCl, 10% glycerol, 5 mM MgCl2, 1 mM DTT; single-site fit; apparent"}},
  "data": [
    {"molecule": "phage 77 ORF104 protein", "values": [
      {"measurement": "stoichiometry N", "setting": "[1]", "result": 1}
    ]},
    {"molecule": "phage 77 ORF104 protein (natural protein)", "values": [
      {"measurement": "Ki", "setting": "[2]", "result": 1620, "unit": "nM"}
    ]},
    {"molecule": "phage 77 ORF104 protein K39E", "values": [
      {"measurement": "response", "setting": "[3]", "result": 26, "unit": "mA"}
    ]},
    {"molecule": "phage 77 ORF104 protein Y17E", "values": [
      {"measurement": "response", "setting": "[3]", "result": 57, "unit": "mA"}
    ]},
    {"molecule": "B1", "values": [
      {"measurement": "binding result", "setting": "[4]", "result": "binds"}
    ]},
    {"molecule": "B2", "values": [
      {"measurement": "stoichiometry N", "setting": "[5]", "result": 2}
    ]},
    {"molecule": "B3", "values": [
      {"measurement": "Kd", "setting": "[6]", "result": 49, "unit": "nM"}
    ]}
  ]
}
